The target of this assay is IgG-type of BCR (membrane-bound IgG) on Nu-DUL-1 cells. Nature of the assay: cell-based or functional assay.

Regarding “Immunoglobulin G-degrading enzyme of S. pyogenes (IdeS)”, the loss of anti-Fab signal on Nu-DUL-1 cells (flow cytometry) after IdeS treatment was more than 4 µg/mL; the membrane bound IgG on Nu-DUL-1 cells one hour after IdeS treatment and wash (flow cytometry, anti-Fab) was more than 4 µg/mL.

For the origin of these results see patent US20210260173A1.
